The results in this text go back to patent US20150203579A1 (Regeneron, published 2015).

Assay [1] has as its target T1, recombinant human PD-1 expressed with a C-terminal myc-myc-hexahistidine tag (human).
T1 construct: also called hPD-1-MMH; human PD-1-MMH
The experiment in a line: SPR (Biacore), mAb captured, hPD-1-MMH injected, 25 C.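 Further: rate constants obtained by fitting sensorgrams to a 1:1 binding model, KD derived as kd/ka and half-life as ln2/(60·kd) in minutes.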 For orientation: In SPR one partner is held on a chip, and binding of the other changes the refractive index at the surface.

Assay [2] concerns the target T2, recombinant human PD-1 expressed with a C-terminal myc-myc-hexahistidine tag (human).
T2 construct: monomeric; also called hPD-1-MMH; human PD-1-MMH
The experiment in a line: SPR, mAb captured, 37C.

For assay [3], the target named is T3, human PD-1 dimer (human PD-1-mFc or human PD-1-hFc) (human, UniProt Q15116 25-170).
T3 construct: also called hPD-1-mFc; hPD1-hFc
T3 sequence (Q15116 25-170 C93S): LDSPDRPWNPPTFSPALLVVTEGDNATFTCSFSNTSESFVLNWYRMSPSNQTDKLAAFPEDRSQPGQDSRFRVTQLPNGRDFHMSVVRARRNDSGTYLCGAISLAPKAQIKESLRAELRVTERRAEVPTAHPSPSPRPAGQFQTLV
The experiment in a line: SPR, mAb captured, 25C.

Assay [4] has as its target T3, human PD-1 dimer (human PD-1-mFc or …). As to the kind of experiment: SPR, mAb captured, 37C.
For assay [5], the target named is T4, recombinant cynomolgus monkey PD-1 expressed with a C-terminal myc-myc-hexahistidine tag (cynomolgus monkey (Macaca fascicularis)).
T4 construct: monomeric; also called MfPD-1-MMH
T4 chain: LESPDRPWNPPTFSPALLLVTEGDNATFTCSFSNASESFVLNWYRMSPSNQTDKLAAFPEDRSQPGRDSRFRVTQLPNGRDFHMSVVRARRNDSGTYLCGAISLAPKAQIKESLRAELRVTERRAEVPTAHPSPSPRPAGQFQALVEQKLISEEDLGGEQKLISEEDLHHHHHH
As to the kind of experiment: SPR, mAb captured, 25C.

For assay [6], the target named is T4, recombinant cynomolgus monkey PD-1 …. The experiment in a line: SPR, mAb captured, 37C.
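Wherever result is given: rates from fitting Biacore data for PD-1 binding to anti-PD-1 antibodies with a 1:1 model, KD computed as koff/kon and t½ as ln2/(60·koff).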

B1: H4xH9145P2 (antibody, human IgG4, V domains shown)
VH: QVQLVESGGGVVQPGRSLRLSCSASGFTFSAYAMHWVRQAPGKGLEWVAAISYGGSDKYYADSVKGRFTISRDNSKNTLYLQMNSLRTDDTAVYYCAKSAHWNFFFDYWGQGTLVTVSS
VL: not shown
notes: H4xH: modified human IgG4 Fc
As for B1, in assay [1], the Kd – broadly, a measure of binding affinity in units of concentration – stood at 38.5 nM; the koff (usually a measure of how fast the partners let go of each other) stood at 0.00134 s⁻¹; the kon – broadly, the second-order rate constant of association – was 34700 M⁻¹ s⁻¹; the t½ (as a rule, how long it takes for the measured level to halve) stood at 8.6 min.

B2: H2aM7780N (antibody, mouse IgG2a, V domains shown)
VH: QVQLVESGGGVVQSGRSLRLSCAASGFTFSSYGMHWVRQAPGKGLEWVAVIWYDGSNIYYSDSVKGRFTISRANSKNTLYLQMNSLRAEDTAVYYCARPGHWNYFFEYWGQGTLVTVSS
VL: DIQMTQSPSSLSASVGDRVTITCRASQSINNYLNWYQQKPGKAPKLLIYTASSLQSGVPSRFSGSGSGTDFTLTISSLQPEDFATYYCQQSYSTPPLTFGQGTQLEIK
notes: Human variable regions, mouse IgG2a Fc (H2aM prefix); also called H2M7780N
For B2, the dissociation constant Kd stood at 55.8 nM in assay [2]; 0.236 nM in assay [3]; 0.23 nM in assay [4]; 31.5 nM in assay [5]; 60.5 nM in assay [6]. The dissociation rate constant (koff) in assay [2] amounted to 0.00152 s⁻¹; in assay [3], 9.94e-06 s⁻¹; in assay [4] it was 2.29e-05 s⁻¹; in assay [5], 0.000315 s⁻¹; in assay [6] it was 0.00138 s⁻¹. Moreover, the kon stood at 27200 M⁻¹ s⁻¹ in assay [2]; 42100 M⁻¹ s⁻¹ in assay [3]; 99400 M⁻¹ s⁻¹ in assay [4]; 10000 M⁻¹ s⁻¹ in assay [5]; 22900 M⁻¹ s⁻¹ in assay [6]. For the same molecule, the t½ in assay [2] came out at 7.6 min; in assay [3], 1160 min; in assay [4], 505 min; in assay [5], 37 min; in assay [6], 8.3 min.

B3: H2aM7796N (antibody, mouse IgG2a, V domains shown)
VH: QVQLVESGGGVVQPGRSLRLSCAASGFTFSSYGMHWVRQAPGKGLEWVAIIWSDGDSEYNLDSVKGRFTISRDNSKNTLYLQMNSLRVEDSAVYYCARDRDLEDIWGQGTMVTVSS
VL: DIQMTQSPSSLSASVGDRVTITCRASQGIRNDLGWYQQKPGKAPKRLIYAASNLQSGVPSRFSGSGSGTEFTLTISSLQPEDFATYYCLQHNSYPLTFGGGTKVEIK
notes: Human variable regions, mouse IgG2a Fc; also called H2M7796N
For B3, in assay [2], the dissociation constant Kd is 1510 nM, the koff was determined as 0.0165 s⁻¹, the kon came to 10900 M⁻¹ s⁻¹ and the t½ came to 0.7 min. Also, in assay [3], the affinity, expressed as Kd, was 3.32 nM; the off-rate (koff) worked out at 8.67e-05 s⁻¹; the kon turned out to be 26100 M⁻¹ s⁻¹; the t½ is 133 min. Also, in assay [4], the dissociation constant Kd was found to be 19.6 nM, the koff came out at 0.000434 s⁻¹, the association rate constant (kon) was found to be 22100 M⁻¹ s⁻¹ and the t½ amounted to 27 min. Further, in assay [5], the binding result was “no binding (tested: up to 200 nM)”.

B4: H4xH8992P (antibody, V domains shown)
VH: EVQLVESGGGLVQPGRSLRLSCVASGFALHDYAMHWVRQVPGKGLEWVSSISWNSGVIGYADSLKGRFTISRDNAKNSLYLQMNSLRAEDTALYYCAKGSGSYYVSWFDPWGQGTLVTVSS
VL: not shown
notes: Human IgG4 Fc with 2 or more amino acid changes (H4xH)
As for B4, the results for the dissociation constant Kd in assay [3], in assay [4] and in assay [5] were 0.68 nM, 2.91 nM and 200 nM, respectively. Further, the t½ in assay [3] is 72 min; in assay [4] it was 11 min; in assay [5], 0.3 min.

B5: H4xH8992P (antibody, human IgG4, V domains shown)
VH: EVQLVESGGGLVQPGRSLRLSCVASGFALHDYAMHWVRQVPGKGLEWVSSISWNSGVIGYADSLKGRFTISRDNAKNSLYLQMNSLRAEDTALYYCAKGSGSYYVSWFDPWGQGTLVTVSS
VL: not shown
notes: H4xH: modified human IgG4 Fc
B5: in assay [1], the Kd turned out to be 141 nM and the t½ worked out at 0.5 min.
